Experimental data taken from patent US7422862B2, “Methods for identifying modulators of apoptosis” (The Burnham Institute, priority 2001, dated 2008).

How the values were obtained:
Bax [1] = molecular target: T1, Bax (Homo sapiens, UniProt Q07812); assay: Co-immunoprecipitation of GFP-Humanin fusion polypeptides with Bax in transfected cells; assay type: binding; set-up: expressed in transfected cells; host or cells: HEK293T; key to Bax binding: +: ability to bind Bax was determined by co-immunoprecipitation assay; −: lacked Bax-binding activity; conditions: for co-immunoprecipitation with tagged Bax: 293T/HEK293T cells, anti-GFP immunoprecipitation
T1 sequence (Q07812 whole entry, species assumed, the tested form may be a part): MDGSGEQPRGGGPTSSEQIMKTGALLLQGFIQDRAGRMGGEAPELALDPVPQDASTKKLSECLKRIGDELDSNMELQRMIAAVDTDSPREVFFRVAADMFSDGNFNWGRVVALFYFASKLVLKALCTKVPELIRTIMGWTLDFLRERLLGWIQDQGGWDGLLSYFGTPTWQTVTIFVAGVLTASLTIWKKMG
Description: Humanin (HN) cDNA was sub-cloned into a Green Fluorescence Protein (GFP) expression vector GFP-Cl at the Xhol/Hind III sites, producing a GFP-HN fusion polypeptide. GFP and GFP-HN were transfected into 293T cells with pcDNA3-HA-Bax. Cell lysates from these cells were immunoprecipitated with anti-GFP antibody and subsequently blotted with anti-HA antibody. The lysates were also blotted with ani-GFP antibody to confirm polypeptide expression. […] The data shown were obtained using the cytosolic form of Humanin; however, both cytosolic and mitochondrial forms of Humanin were tested and the results were the same.
Co-immunoprecipitation assays were performed using Humanin polypeptides expressed as fusion polypeptides with the Green Fluorescent Protein (GFP) in human cells. Wild-type Humanin fused to GFP is referred to as GFP-HN and a mutant form of Humanin, where the cysteine at position 8 is replaced with proline, fused to GFP is referred to as GFP-C8P. […] Immunoblot analysis of lysates of the transfected cells confirmed production of all proteins. In addition, GFP-HN also coimmunoprecipitated endogenous Bax from cell lines, which contain relatively high levels of the Bax protein.
Immunoblotting and immunoprecipitations were performed as follows. Immunoblotting was performed as described previously (Fields and Song, Nature 340:245-246 (1989)). For co-immunoprecipitations, cells were cultured in 50 uM […] Valine Alanine Asparate fluoromethyl-ketone (zVAD-fmk) to prevent apoptosis. Cells were suspended in lysis buffer (50 mM Tris-HCl, pH7.4; 150 mM NaCl; 20 mM EDTA; 50 mM NaF; 0.5% NP-40; 0.1 mM Na3VO4; 20 ug/ml Leupeptin; 20 ug/ml Aprotinin; 1 mM DTT; and 1 mM PMSF). Lysates (200 ul diluted in 1 ml final volume of lysis buffer) were cleared by incubation with 15 ul of protein G-Sepharose 4B (Zymed) and then incubated with 15 ul of polyclonal antibody and 15 ul of protein G at 4° C. overnight. Beads were then washed 4 times with 1.5 mls lysis buffer before boiling in Laemmli sample buffer and performing SDS-PAGE/immunoblotting.
In order to explore whether a correlation exists between Humanin binding to Bax and Humanin-mediated suppression of apoptosis, Bax was co-expressed with various GFP-fusion polypeptides encoding wild-type, full-length Humanin or various truncation and site-specific mutants of Humanin (Table 1). Expression of all GFP-fusion polypeptides was confirmed by immunoblotting, and ability to bind Bax was determined by co-immunoprecipitation assay. Each Humanin mutant was scored for ability to suppress apoptosis induced by Bax over-expression by >50% using a 3:1 ratio of HN:Bax plasmid DNA. […] Based on these studies, an active region of the 24 amino-acid Humanin peptide, mapped to residues 7-17.

Bax [2] = molecular target: T1, Bax; assay: Bax-induced apoptosis in transfected neuronal cells (DAPI staining); assay type: cell-based; set-up: expressed in transfected cells
Experimental: (A) HEK293T cells were transfected with pcDNA3-HA-Bax together with plasmids encoding GFP, GFP-HN(N), or GFP-HN(M). Cell lysates were immunoprecipitated with polyclonal anti-GFP antibody. Immunoprecipitates (IP) or cell lysates were analyzed by immunoblotting using anti-HA or anti-GFP antibodies, respectively. (B) CSM14.1 neuronal cells were co-transfected with pcDNA3-HA-Bax together with plasmids encoding GFP, GFP-HN(N), or GFP-HN(M). Percent apoptosis was determined 48 h later by DAPI staining (mean±SD; n=3).
Rat neuronal cell line CSM14.1 cells were transfected with various plasmids using the Lipofectamine reagent (Invitrogen). For transfection, 10×10^5 cells were plated per well using 6 well plates. Each well received 1 μg DNA plus […] of Lipofectamine. After 24 hours of transfection, the percentage of cell death was determined using 4′-6-diamidino-2-phenylindole (DAPI) staining. […] The data shown were obtained using the cytosolic form of Humanin; however, both cytosolic and mitochondrial forms of Humanin were tested and the results were the same.
Apoptosis assays were performed as follows. Both floating and adherent cells (after trypsinization) were collected 48 hr after transfection, fixed, and stained using 4′,6-diamidine-2′-phenylindole dihydrochloride (DAPI) for assessing apoptosis based on nuclear fragmentation and chromatin condensation (Fields and Song, supra (1989)).
Since Humanin co-immunoprecipitates with Bax but not Bak, the effects of Humanin over-expression on apoptosis induced by these members of the Bcl-2 family was compared. […] Similar results were obtained regardless of whether Humanin was fused to the N- or C-terminus of GFP, with both of these GFP fusion polypeptides localizing to the cytosol of cells.

[3] = system: Bax-deficient HCT116 cells; assay: STS-induced apoptosis in Bax-deficient HCT116 cells; assay type: cell-based, human

co-immunoprecipitation with tagged Bax (Bax [1]; listed as GFP-HN(N))	Bax binding (Bax [1]; GFP-fusion polypeptides, co-immunoprecipitation)	co-immunoprecipitation of endogenous Bax (Bax [1]; cell lines with relatively high levels of Bax)	suppression of Bax-induced apoptosis, nuclear vs mitochondria-encoded form (Bax [2]; CSM14.1 cells, 48 h, DAPI)	suppression of apoptosis induced by Bax (Bax [2]; CSM14.1 or PC-3 cells, transient co-transfection)	Substance	co-immunoprecipitation with tagged Bax (Bax [1])	suppression of STS-induced apoptosis [3]	Bax-induced apoptosis (Bax [2]; CSM14.1 cells, 24 hours after transfection, DAPI)
comparable amounts	+	coimmunoprecipitated	suppressed to comparable extents	about half	GFP-HN: Wild-type full-length Humanin fused to Green Fluorescent Protein	co-immunoprecipitated	failed to suppress	
					Humanin: 24 amino acid polypeptide, cytosolic form of human Humanin (SEQ ID NO:2); used as synthetic peptide or expressed fusion	co-immunoprecipitate		decreased
